The text below walks through data of US20190161551A1 (Regeneron, published 2019).

Assay [1] has as its target T1, mouse TrkB.hFc (mouse).
T1 construct: also called mTrkB.hFc; mTrkB-hFc
Description: blocking ELISA: constant mouse TrkB.hFc (REGN2277) pre-mixed with antibody, binding to plate-coated BDNF. The method, then:
Experiments were carried out using the following procedure. Human BDNF was coated at a concentration of 0.5 μg/mL (for blocking mouse TrkB.hFc interaction) or 0.3 μg/mL (for blocking rat TrkB.mmh interaction) in PBS on 96-well microtiter plate and incubated overnight at 4° C. […] In a 96-well dilution plate, 850 pM mouse TrkB.hFc or rat TrkB.mmh was mixed with the three-fold serially diluted anti-mouse TrkB antibodies and control antibody. The final antibody concentrations ranged from 1.69 pM to 100 nM. The protein-antibody mix was incubated at room temperature (RT) for 1 hour. The pre-bound mix was then transferred in duplicates to microtiter plates coated with BDNF. […] Plate-bound mouse TrkB.hFc was detected with HRP-conjugated goat anti-human Fcγ fragment specific antibody (Jackson Immunoresearch) and rat TrkB.mmh was detected with HRP-conjugated anti-histidine antibody (Qiagen). […]
The absorbance at 450 nm for each well was recorded and plotted as a function of the concentration of antibody. Data was analyzed in GraphPad Prism software using a four-parameter logistic equation over an 11-point dose response curve and IC₅₀ values were calculated. […] Percent blockade at maximum concentration of the antibody tested was calculated as an indicator of the ability of the antibodies to block the binding of TrkB to BDNF on the plate relative to the baseline of the assay. […]
In general terms: An ELISA detects its analyte on a solid surface through an enzyme-linked reagent.

Assay [2] deals with T2, rat TrkB extracellular domain expressed with a C-terminal myc-myc-hexahistidine tag (rat, UniProt Q63604 32-429).
T2 construct: also called rTrkB.mmH; rTRKB.mmH
Briefly: SPR, mAb captured (anti-mFc), 25C. The method, then: (§1) Equilibrium dissociation constants (KD values) for TrkB binding to purified anti-TrkB monoclonal antibodies were determined using a real-time surface plasmon resonance biosensor using a Biacore 4000 instrument. All binding studies were performed in 10 mM Hepes pH 7.4, 150 mM NaCl, 3 mM EDTA, and 0.05% v/v Surfactant Tween-20 (HBS-ET running buffer) at 25° C. and 37° C. […] Binding studies were performed on following TrkB reagents; human TrkB extracellular domain expressed with a C-terminal myc-myc-hexahistidine tag (hTRKB.mmH; SEQ ID NO: 76; Accession number NP_001018074.1), mouse TrkB extracellular domain expressed with a C-terminal myc-myc-hexahistidine tag (mTRKB.mmH; SEQ ID NO: 79; Accession number NP_001020245), rat TrkB extracellular domain expressed with a C-terminal myc-myc-hexahistidine tag (rTRKB.mmH; SEQ ID NO: 84; Accession number NP_036863.1), and human TrkB extracellular domain expressed with a C-terminal mouse IgG2a Fc tag (hTrkB-mFc; SEQ ID NO: 77; Accession number NP_001018074.1). […] Kinetic association (kₐ) and dissociation (kd) rate constants were determined by fitting the real-time binding sensorgrams to a 1:1 binding model with mass transport limitation using Scrubber 2.0c curve-fitting software. Binding dissociation equilibrium constants (KD) and dissociative half-lives (t½) were calculated from the kinetic rate constants as: […]
(Surface plasmon resonance follows binding to a sensor surface in real time, without labels.)

Assay [3] has as its target T3, human TrkB extracellular domain expressed with a C-terminal mouse IgG2a Fc tag (human).
T3 construct: also called hTrkB-mFc; hTrkB.mFc
Description: SPR, mAb captured (anti-mFc), 25C. Here is the method: as §1

The target in assay [4] is T4, mouse TrkB extracellular domain expressed with a C-terminal myc-myc-hexahistidine tag (mouse, UniProt P15209 32-429).
T4 construct: also called mTrkB.mmH; mTRKB.mmH
Description: SPR, mAb captured (anti-mFc), 37C. The method, then:
as §1

The target of assay [5] is T2, rat TrkB extracellular domain expressed …. Briefly: SPR, mAb captured (anti-mFc), 37C. Here is the method:
as §1

In assay [6] the target is T5, human TrkB extracellular domain expressed with a C-terminal myc-myc-hexahistidine tag (human, UniProt Q16620 32-430).
T5 construct: also called hTrkB.mmH; hTRKB.mmH
Briefly: SPR, mAb captured (anti-mFc), 37C. The method, then: as §1

Assay [7] deals with T3, human TrkB extracellular domain …. Briefly: SPR, mAb captured (anti-mFc), 37C. Here is the method:
as §1

Assay [8] has as its target T2, rat TrkB extracellular domain expressed …. Description: SPR, mAb captured (anti-mFc), 25C; 25 C; rTrkB.mmH. Here is the method:
as §1, with “All” for “Equilibrium dissociation constants (KD values) for TrkB binding to purified anti-TrkB monoclonal antibodies were determined using a real-time surface plasmon resonance biosensor using a Biacore 4000 instrument. All”

By Kd is commonly meant the concentration at which binding is half-saturated. A low value points to a tighter complex. In general, koff refers to a measure of how fast the partners let go of each other. By kon is commonly meant the second-order rate constant of association. For orientation: t½ means how long it takes for the measured level to halve. Low readings indicate fast loss, high ones slow loss.

T5 sequence (Q16620 other isoform, or with tags, fused parts or gaps): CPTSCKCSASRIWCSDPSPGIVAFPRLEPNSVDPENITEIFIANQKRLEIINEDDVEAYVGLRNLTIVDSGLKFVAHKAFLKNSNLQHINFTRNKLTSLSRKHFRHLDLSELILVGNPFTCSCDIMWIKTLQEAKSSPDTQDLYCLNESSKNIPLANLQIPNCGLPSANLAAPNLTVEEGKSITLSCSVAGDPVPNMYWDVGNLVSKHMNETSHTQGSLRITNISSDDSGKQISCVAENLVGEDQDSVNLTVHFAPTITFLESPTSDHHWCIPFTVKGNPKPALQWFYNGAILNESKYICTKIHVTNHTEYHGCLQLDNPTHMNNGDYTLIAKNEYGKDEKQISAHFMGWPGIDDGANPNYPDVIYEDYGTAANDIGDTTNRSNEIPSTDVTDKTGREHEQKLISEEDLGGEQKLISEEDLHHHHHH
T3 sequence (chain, as listed by the source limits assumed): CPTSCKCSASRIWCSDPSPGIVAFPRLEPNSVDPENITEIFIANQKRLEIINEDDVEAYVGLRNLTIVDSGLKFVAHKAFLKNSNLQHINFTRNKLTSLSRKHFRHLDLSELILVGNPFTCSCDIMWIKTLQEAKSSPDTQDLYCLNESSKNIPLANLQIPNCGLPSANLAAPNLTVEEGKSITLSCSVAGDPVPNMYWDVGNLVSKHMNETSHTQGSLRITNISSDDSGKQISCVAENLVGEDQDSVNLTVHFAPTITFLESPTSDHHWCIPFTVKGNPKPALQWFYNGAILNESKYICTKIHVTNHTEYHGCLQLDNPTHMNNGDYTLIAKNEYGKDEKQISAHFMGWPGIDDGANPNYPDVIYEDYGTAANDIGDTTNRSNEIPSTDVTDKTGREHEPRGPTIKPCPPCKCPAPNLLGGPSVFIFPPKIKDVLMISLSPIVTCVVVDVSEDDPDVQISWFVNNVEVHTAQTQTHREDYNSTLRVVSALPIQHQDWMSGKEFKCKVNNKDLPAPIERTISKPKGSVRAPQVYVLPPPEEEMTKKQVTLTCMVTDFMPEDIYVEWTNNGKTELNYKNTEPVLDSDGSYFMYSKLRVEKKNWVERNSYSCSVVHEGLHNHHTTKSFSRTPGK
T2 sequence (Q63604 other isoform, or with tags, fused parts or gaps): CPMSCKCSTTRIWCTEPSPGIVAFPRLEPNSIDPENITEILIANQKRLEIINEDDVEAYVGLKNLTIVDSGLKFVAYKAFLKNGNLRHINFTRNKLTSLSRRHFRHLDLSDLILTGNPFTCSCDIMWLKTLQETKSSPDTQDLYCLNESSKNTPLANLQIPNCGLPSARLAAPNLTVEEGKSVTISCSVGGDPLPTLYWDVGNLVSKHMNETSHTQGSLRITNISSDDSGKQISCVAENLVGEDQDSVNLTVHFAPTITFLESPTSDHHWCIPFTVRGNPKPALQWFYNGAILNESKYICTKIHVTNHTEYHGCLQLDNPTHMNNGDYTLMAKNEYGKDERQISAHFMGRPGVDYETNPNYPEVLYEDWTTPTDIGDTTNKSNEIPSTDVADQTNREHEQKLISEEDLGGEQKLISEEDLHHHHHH
T4 sequence (P15209 other isoform, or with tags, fused parts or gaps): as the sequence (Q63604 other isoform, or with tags, fused parts or gaps) above, with M3T, T9S, T10A, I32V, K63R, G84S, T153M, I185L, T394S counted along it
T1 sequence (chain, as listed by the source limits assumed): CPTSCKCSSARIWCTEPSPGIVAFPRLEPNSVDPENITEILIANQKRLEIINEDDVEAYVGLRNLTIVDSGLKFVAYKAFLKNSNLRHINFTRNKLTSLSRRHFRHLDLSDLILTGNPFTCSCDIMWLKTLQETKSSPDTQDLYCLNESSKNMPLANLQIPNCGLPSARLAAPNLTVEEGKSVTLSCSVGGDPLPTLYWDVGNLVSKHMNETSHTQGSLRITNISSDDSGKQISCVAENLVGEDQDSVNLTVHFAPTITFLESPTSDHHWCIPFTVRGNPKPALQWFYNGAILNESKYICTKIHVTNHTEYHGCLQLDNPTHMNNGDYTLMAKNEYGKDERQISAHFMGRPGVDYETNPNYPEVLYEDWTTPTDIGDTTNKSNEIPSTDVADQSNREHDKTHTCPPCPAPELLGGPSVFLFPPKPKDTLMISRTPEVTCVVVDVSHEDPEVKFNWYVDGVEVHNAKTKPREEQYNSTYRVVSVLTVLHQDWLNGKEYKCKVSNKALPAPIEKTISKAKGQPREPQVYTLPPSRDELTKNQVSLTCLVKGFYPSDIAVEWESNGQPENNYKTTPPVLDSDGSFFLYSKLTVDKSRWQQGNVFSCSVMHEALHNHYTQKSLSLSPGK

B1: M2aM14173N (antibody, mouse IgG2a, kappa, V domains shown)
VH: NVSLVESGGGSVKPGGSLQLSCAASGFTFSSSAMSWIRQTPEMRLEWVATISDRGSYTYYPDSVEGRFTISRDNAKNILYLQMSHLMSEDTAMYYCARGKGEKAYYTAFFAYWGQGSLVTVSA
VL: DIQMTQSPASLSASVGETVTITCRASENIYSYLAWYQQKPGKSPHLLVHNAETLAEGVPSRFSGSGSGPQFSLKINSLQPGDSGTYYCQHHYSSPWTFGGGTKLEIKR
notes: Anti-mouse TrkB antibody from hybridoma, mouse IgG2a Fc; also called surrogate anti-mouse TrkB antibody
Consider B1, for which the “IC50 (read off the curve)” value in assay [1] is approximately 0.1 nM.

B2: H1M8037C (antibody, mouse IgG1, kappa, V domains shown)
VH: QVQLVQSGAEVKKPGASVKVSCKASGYTFTNYDIIWVRQAPGQGLEWMGYINPYNDGTKYNEKFKGRVTMTRDTSTSTVYMELSSLRSEDTAVYYCARLLKYRRFRYYAIDYWGQGTTVTVSS
VL: DIQMTQSPSSLSASVGDRVTITCRTSENVYSNLAWYQQKPGKAPKLLIYAASNLQSGVPSRFSGSGSGTDYTFTISSLQPEDIATYYCQHFWGSPFTFGQGTKLEIKR
notes: captured by anti-mFc in SPR; also called Comparator; comparator anti-TrkB monoclonal antibody
For the molecule B2, the Kd in assay [2] worked out at 31 nM; in assay [3] it was 1.09 nM; in assay [4], 94.1 nM; in assay [5] it was 87.5 nM; in assay [6] it was 135 nM; in assay [7], 1.24 nM. In assay [8], binding was put at a Kd of 31.8 nM. Also, the off-rate constant (koff) worked out at 0.0016 s⁻¹ in assay [2]; 9.55e-05 s⁻¹ in assay [3]; 0.00696 s⁻¹ in assay [4]; 0.00694 s⁻¹ in assay [5]; 0.00831 s⁻¹ in assay [6]; 0.000292 s⁻¹ in assay [7]. Also, the association rate constant (kon) in assay [2] is 51600 M⁻¹ s⁻¹; in assay [3], 88000 M⁻¹ s⁻¹; in assay [4], 74000 M⁻¹ s⁻¹; in assay [5], 79300 M⁻¹ s⁻¹; in assay [6], 61300 M⁻¹ s⁻¹; in assay [7], 235000 M⁻¹ s⁻¹. In addition, the “t½” value in assay [2] was 7 min; in assay [3], 121 min; in assay [4], 1.7 min; in assay [5], 1.7 min; in assay [6], 1.4 min; in assay [7] it was 40 min.
